Measurements from US20250026839A1 (OSE IMMUNOTHERAPEUTICS, published 2025).

Tests used:
[1] = target: Recombinant human TRIM21 protein, TRIM21-his (Sinobiological #18010-H07B) (human) (UniProt P19474); assay: antagonist assay of FIG. 6A against a control antibody; format not stated; competitor CLEC-1
[2] = target: Recombinant human TRIM21 protein, TRIM21-his (Sinobiological #18010-H07B) (human) (UniProt P19474); assay: competition ELISA, TRIM21-his coated, antibody in excess (20 µg/ml), competitor biotinylated Fc-CLEC1 in dose response
[3] = target: T1, endogenous TRIM21 from whole cell extracts (RAJI, MoDC, HPB-ALL cells) (human, UniProt P19474 1-475); assay: co-immunoprecipitation from RAJI whole cell extract, anti-TRIM21 Western blot (FIG. 3A); supernatant not depleted of TRIM21 (FIG. 3B)
T1 construct: Endogenous cellular protein of human cell lines and monocyte derived dendritic cells, not a recombinant construct; also called TRIM21 E3 Ubiquitin-protein Ligase; cellular endogenous TRIM-21
Description: FIG. 3: Co-immunoprecipitation of TRIM21 with CLEC-1A.
The experiment was repeated using Monocyte derived Dendritic Cells (MoDC) protein extracts as starting endogenous protein mix.

[4] = target: T2, Recombinant human TRIM21 protein, TRIM21-his (Sinobiological #18010-H07B) (human, UniProt P19474 1-475); assay: ELISA, TRIM21-his coated, biotinylated Fc in dose response (FIG. 4A)
T2 construct: Bought, produced in baculovirus; coated on ELISA plates or immobilised on a CM5 chip; not shown: his tag
Description: (§1) Plate was saturated with superblock buffer (#37515, Thermofisher).

[5] = target: T2, Recombinant human TRIM21 protein, …; assay: ELISA, TRIM21-his coated, biotinylated Fc-CLEC1 in dose response, streptavidin-peroxidase
Description: as §1

[6] = target: T2, Recombinant human TRIM21 protein, …; assay: ELISA, TRIM21-his coated, biotinylated His-CLEC1 in dose response, streptavidin-peroxidase

Recombinant human TRIM21 protein, TRIM21-his (Sinobiological #18010-H07B) (human), sequence (P19474 whole entry): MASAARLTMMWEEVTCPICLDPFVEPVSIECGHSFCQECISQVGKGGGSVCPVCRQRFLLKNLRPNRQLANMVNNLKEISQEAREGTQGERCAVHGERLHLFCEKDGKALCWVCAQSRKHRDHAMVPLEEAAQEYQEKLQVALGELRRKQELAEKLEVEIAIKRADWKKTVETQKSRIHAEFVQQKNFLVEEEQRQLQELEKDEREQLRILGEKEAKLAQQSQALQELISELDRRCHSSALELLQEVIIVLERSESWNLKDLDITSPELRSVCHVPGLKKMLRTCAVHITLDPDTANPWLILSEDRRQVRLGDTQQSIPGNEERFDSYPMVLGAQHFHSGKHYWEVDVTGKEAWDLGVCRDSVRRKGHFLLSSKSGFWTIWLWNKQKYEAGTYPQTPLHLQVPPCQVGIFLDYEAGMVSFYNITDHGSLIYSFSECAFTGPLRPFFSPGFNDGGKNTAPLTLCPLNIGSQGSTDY
T2 sequence (P19474 whole entry): as above
T1 sequence (P19474 whole entry): as above

Molecule	percent decrease of the Fc-CLEC1/TRIM21 interaction [2] [%]	also measured
anti-TRIM21 antibody Fisher PA5-22295		percent reduction of the binding between CLEC-1 and TRIM21 [1]: 65%
anti-TRIM21 antibody MAB6219 (Biotechne)	50	
anti-TRIM21 antibody MAB62191 (Biotechne)	50	
anti-TRIM21 antibody PA5-18147 (Fisher)	50	
anti-TRIM21 antibody PA5-22294 (Fisher / Invitrogen)	50	
anti-TRIM21 antibody sc-25351 (Santacruz)	50	
Fc only (human IgG1-E3 Fc control) (other, UniProt P01857-1 104-330, looked up, biotinylated in the ELISA (sites not given), domain: Fc; also called Fc alone; Fc-biot control) DKTHTCPPCPAPPVAGGPSVFLFPPKPKDTLMISRTPEVTCVVVDVSHEDPEVKFNWYVDGVEVHNAKTKPREEQYNSTYRVVSVLTVLHQDWLNGKEYKCKVSNKGLPSSIEKTISKAKGQPREPQVYTLPPSRDELTKNQVSLTCLVKGFYPSDIAVEWESNGQPENNYKTTPPVLDSDGSFFLYSKLTVDKSRWQQGNVFSCSVMHEALHNHYTQKSLSLSPGK		binding result [3]: no binding; binding result [4]: no binding (tested: 30 µg/ml)
Soluble Clec1-human IgG Fc chimera (Fc-Clec-1) (Fc fusion, biotinylated in the ELISA experiments (sites not given), domain: Fc; also called Fc-CLEC-1A; Fc-CLEC1A) DKTHTCPPCPAPPVAGGPSVFLFPPKPKDTLMISRTPEVTCVVVDVSHEDPEVKFNWYVDGVEVHNAKTKPREEQYNSTYRVVSVLTVLHQDWLNGKEYKCKVSNKGLPSSIEKTISKAKGQPREPQVYTLPPSRDELTKNQVSLTCLVKGFYPSDIAVEWESNGQPENNYKTTPPVLDSDGSFFLYSKLTVDKSRWQQGNVFSCSVMHEALHNHYTQKSLSLSPGKQYYQLSNTGQDTISQMEERLGNTSQELQSLQVQNIKLAGSLQHVAEKLCRELYNKAGAHRCSPCTEQWKWHGDNCYQFYKDSKSWEDCKYFCLSENSTMLKINKQEDLEFAASQSYSEFFYSYWTGLLRPDSGKAWLWMDGTPFTSELFHIIIDVTSPRSRDCVAILNGMIFSKDCKELKRCVCERRAGMVKPESLHVPPETLGEGD		EC50 [5]: 15 µg/mL
His-CLEC1 (Biotechne #1704-CL) (receptor, biotinylated in the ELISA experiments (sites not given), Bought recombinant protein produced in NS0 cells; also called His-CLEC1A; His-CLEC-1A; not shown: His tag) QYYQLSNTGQDTISQMEERLGNTSQELQSLQVQNIKLAGSLQHVAEKLCRELYNKAGAHRCSPCTEQWKWHGDNCYQFYKDSKSWEDCKYFCLSENSTMLKINKQEDLEFAASQSYSEFFYSYWTGLLRPDSGKAWLWMDGTPFTSELFHIIIDVTSPRSRDCVAILNGMIFSKDCKELKRCVCERRAGMVKPESLHVPPETLGEGD		EC50 [6]: 13 µg/mL
